Assay results taken from patent US20260028418A1 (GC CELL, published 2026).

Tests used:
[1] = target: T1, HER2-ECD-Fc (human, UniProt P04626 23-652); assay: ELISA on HER2-ECD-Fc; antibody at 5 × 10^-7 µg/mL
T1 construct: extracellular domain; Produced in FreeStyle 293F cells; also called HER2-ECD Fc fusion protein

[2] = target: T1, HER2-ECD-Fc; assay: ELISA on HER2-ECD-Fc; antibody at 5 × 10^-1 µg/mL
[3] = target: T1, HER2-ECD-Fc; assay: ELISA on HER2-ECD-Fc; antibody at 50 µg/mL
[4] = target: T1, HER2-ECD-Fc; assay: ELISA on HER2-ECD-Fc; antibody at 5 × 10^-3 µg/mL
[5] = target: T1, HER2-ECD-Fc; assay: ELISA on HER2-ECD-Fc; antibody at 5 × 10^-5 µg/mL
[6] = target: T2, EGFR-ECD-Fc (human, UniProt P00533 25-645); assay: ELISA on ErbB family extracellular domains, Absorbance at 450 nm; antibody concentration not given
T2 construct: extracellular domain; also called extracellular domain of EGFR; not shown: Hinge and Fc region (CH2-CH3) of human IgG1; The protein was produced in the same manner as HER2-ECD-Fc
Source text: (§1) It was investigated whether the developed five antibodies of the present disclosure specifically bind to HER2 belonging to the ErbB family proteins by ELISA.

[7] = target: T3, HER4 (R&D Systems, #1131-ER-050) (human, UniProt Q15303 26-651); assay: as above
T3 construct: extracellular domain; Bought
T3 sequence (looked up): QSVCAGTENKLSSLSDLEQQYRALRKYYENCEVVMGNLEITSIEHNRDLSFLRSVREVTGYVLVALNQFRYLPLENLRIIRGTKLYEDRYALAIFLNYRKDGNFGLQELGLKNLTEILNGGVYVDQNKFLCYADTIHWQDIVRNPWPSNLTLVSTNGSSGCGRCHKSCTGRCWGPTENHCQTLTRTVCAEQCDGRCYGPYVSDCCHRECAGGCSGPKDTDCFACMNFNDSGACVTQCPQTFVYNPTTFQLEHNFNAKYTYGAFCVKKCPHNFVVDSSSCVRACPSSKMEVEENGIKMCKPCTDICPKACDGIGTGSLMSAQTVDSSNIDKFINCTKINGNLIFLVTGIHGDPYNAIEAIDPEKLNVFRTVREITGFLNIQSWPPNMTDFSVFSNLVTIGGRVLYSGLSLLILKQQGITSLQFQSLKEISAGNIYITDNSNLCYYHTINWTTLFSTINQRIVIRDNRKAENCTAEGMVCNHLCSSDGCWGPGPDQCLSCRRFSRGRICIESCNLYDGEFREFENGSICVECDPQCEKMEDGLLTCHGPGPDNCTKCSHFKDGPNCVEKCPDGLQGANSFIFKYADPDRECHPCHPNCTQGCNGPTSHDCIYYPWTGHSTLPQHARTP
Source text: as §1

[8] = target: T4, HER3 (R&D Systems, #348-RB-050) (human, UniProt P21860 20-643); assay: as above
T4 construct: extracellular domain; Bought
Source text: as §1

[9] = target: T5, HER2-ECD DI Fc (human, UniProt P04626 23-217, limits assumed); assay: ELISA on plate-coated HER2 domain-Fc fusion (1 µg/mL), anti-human IgG-HRP, Abs 450 nm; antibody concentration not given
T5 construct: domain: domain 1; also called domain 1 of the extracellular domains of the HER2 protein; not shown: Hinge and Fc region (CH2-CH3) of human IgG1, at the C-terminus
Description: (§2) The HER2-ECD DI Fc, HER2-ECD DII Fc, HER2-ECD DIII Fc, HER2-ECD DIV Fc and HER2-ECD Fc fusion proteins were immobilized at 4° C. overnight onto a Costar 96-well plate (Corning, Cat. No. 3590) at a concentration of 1 μg/mL […]. The resultant was washed 3 times with TBS-T (0.05% Triton X-100) and then blocked at room temperature for 1 hour with 100 μL of TBS-T/BSA (5% BSA). After washing the blocked plate 3 times and adding the anti-HER2 antibody, the antibody was allowed to bind at room temperature for 1 hour. After washing 3 times and then adding anti-human IgG-HRP diluted to 1:3,000 in TBS-T/BSA, as a secondary antibody, the antibody was allowed to bind at room temperature for 1 hour. After washing the resultant 3 times and adding TMB (SurModics, Cat. No. TMBC-1000-01), the mixture was allowed to develop color at room temperature for 5 minutes. Then, the color development was stopped by adding 1 N sulfuric acid (DukSan, Cat. No. 254). Absorbance was measured at 450 nm using Victor X3 (PerkinElmer, Cat. No. 2030-0030).

[10] = target: T6, HER2-ECD DIII Fc (human, UniProt P04626 342-510, limits assumed); assay: as above
T6 construct: domain: domain 3; also called domain 3 of the extracellular domains of the HER2 protein; not shown: Hinge and Fc region (CH2-CH3) of human IgG1, at the C-terminus
Description: as §2

[11] = target: T1, HER2-ECD-Fc; assay: ELISA on HER2-ECD-Fc; antibody at 5 µg/mL
[12] = target: T1, HER2-ECD-Fc; assay: ELISA on HER2-ECD-Fc; antibody at 5 × 10^-4 µg/mL
[13] = target: T1, HER2-ECD-Fc; assay: ELISA on HER2-ECD-Fc; antibody at 5 × 10^-2 µg/mL
[14] = target: T1, HER2-ECD-Fc; assay: ELISA on HER2-ECD-Fc; antibody at 5 × 10^-6 µg/mL

absorbance [1]: 0.12
absorbance [2]: 2.94
absorbance [3]: 2.74
absorbance [4]: 1.67
absorbance [5]: 0.14
binding result [6]: no binding
binding result [7]: no binding
binding result [8]: no binding
binding result [9]: no binding
binding result [10]: no binding
absorbance [11]: 2.9
absorbance [12]: 0.34
absorbance [13]: 2.72
absorbance [14]: 0.12
B1: hz8G11 (antibody, V domains shown)
VH: QVQLVQSGQEVKKPGASVKVSCKASGYSFTGYYMHWVRQAPGQGLEWIGHINPNNGGTSYNQKFKGRTTLTVDKSISTAYMELSRLRSDDTAVYYCAREEAFAYWGQGTLVTVSS
VL: DIQMTQSPSSLSASVGDRVTISCRASQDISNYLNWYQQKPGKAPKLLIYYTSRLHSGVPSRFSGSGSGTDFSLTISSLQPEDIATYYCQQGITPPWTFGGGTKVEIK
notes: Humanized antibody, detected with anti-human IgG-HRP; also called humanized 8G11 antibody
